The values that follow come from the supplement of paper PMC9170038.

The subject of this data set is MS2 coat protein. Description: apparent KD of MS2 coat protein; designed switch direction (-1 OFF switch, 1 ON switch): -1; higher = weaker reporter binding. In outline: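 Three titration conditions were used: no input, 200 uM small-molecule ligand, and an oligonucleotide input. In each, SNAP-549-labelled MS2 coat protein was raised from 0.7 or 1.5 nM, doubling, to 3 µM over designed RNA switches transcribed on Illumina chips by stalled E. coli RNA polymerase. Curve fits of normalised cluster fluorescence gave values whose per-design median over clusters is the apparent KD.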

[1] abbreviates: input ligand: microRNA oligo, concentration not stated.
Where [2] appears, read: Eterna round: R95, input ligand: microRNA oligo, concentration not stated.
The mark [3] stands for this setting: Eterna round: R95, input ligand: FMN 200 uM.
[4] abbreviates: Eterna round: R95, input ligand: none.

With “GCUUCUGGGCAAGGAUAUCCUGCGCUGUUCUGGUUCGUGUCUGUCACAUGAGGAUCACCCAUGUGGGAGAAGGUGCCUGUGGUG [Design 69] (Eterna round: R96, puzzle: Exclusion NG 2)”, the “apparent KD of MS2 coat protein” value was 18.8 nM (input ligand: FMN 200 uM), 11.3 nM under setting [1] and 19.5 nM (input ligand: none).

In the case of “GGUGGACAUGAGGAUCACCCAUGUGAGGAUAUCGGCUGGCUACUGGCUGACGGCUGCUCGAGAAGGCGCAUUGU [Exclusion 1 V87] (puzzle: Exclusion 1)”, the “apparent KD of MS2 coat protein” value under setting [2] was determined as 38.4 nM.

Regarding “CAUGAUCUUCGGAUCAUGUACAUGAGGAUCACCCAUGUGACGAGUAGAUCCUCAAACAAGCUUUUUGCUCGUCUUAU [Sensor v3 - Turn-off variant 1 - 19] (puzzle: Sensor v3, turn-off variant 1)”, the “apparent KD of MS2 coat protein” value by setting is: under setting [3], 50.7 nM; under setting [2], 12.1 nM; under setting [4], 64.5 nM.

In the case of “GACUGCUGAGGAUAUACAUGAGGAUCACCCAUGUGCUUCAGUAUCGAAAGAUACAUUGGUAGAAGGUAGUAGUC [LRO-Excl3-07] (puzzle: Exclusion 3)”, the “apparent KD of MS2 coat protein” value under setting [2] is 11.1 nM.

“AUGUUACUCUGAGGAUAUUGUUUAUUCUUCUCACAUGAGGAUCACCCAUGUUUCCAUGUUAACCGCAAGAAGGCAGUUUUGUUU [JR_ExcNG2_Sub029] (Eterna round: R96, puzzle: Exclusion NG 2)”: the “apparent KD of MS2 coat protein” value amounted to 46.1 nM (input ligand: FMN 200 uM), 24.5 nM under setting [1] and 36.3 nM (input ligand: none).

With “UCAUGUCCUGAGGAUAUGCAGCGGAUAAACGCAGCAGAAGGCAGGACAUGAGGAUCACCCAUGUGUGCCUUCUA [Exclusion 6 Mod5 of JL of Mod of Letion by ViennaUCT] (Eterna round: R97, puzzle: Exclusion 6)”, the “apparent KD of MS2 coat protein” value (input ligand: FMN 200 uM) is 18.3 nM and the “apparent KD of MS2 coat protein” value (input ligand: none) is 190 nM.

For “UGACAGUGAGGAUAUUAUCUGAGGGACAUGAGGAUCACCCAUGUGCACUCACGGGCCCAGUAAGAAGGCACGAGCU [EX5 B.23] (Eterna round: R97, puzzle: Exclusion 5)”, the “apparent KD of MS2 coat protein” value (input ligand: FMN 200 uM) is 18.1 nM and the “apparent KD of MS2 coat protein” value (input ligand: none) turned out to be 18.8 nM.

On to “UAGUGUUACACAGGAUAUCGCCUCUUAUUACAUGAGGAUCACCCAUGUUUAGUUAGUUACAUGUACGAGAAGGGUGUUGUAGUU [JR_ExcNG2_Sub039] (Eterna round: R96, puzzle: Exclusion NG 2)”, for which the “apparent KD of MS2 coat protein” value stood at 787 nM (input ligand: FMN 200 uM), 681 nM under setting [1] and 1010 nM (input ligand: none).

“UGUACUAACACGGAAGUGUUAGUACUAUAAGCUUGUGUUACAUGAGGAUCACCCAUGUCCUCAUAAGCUCGUCUUAA [Mat - Sensor v3 - Turn-off var 2 - D73] (puzzle: Sensor v3, turn-off variant 2)”: the “apparent KD of MS2 coat protein” value is, setting by setting: under setting [3], 43.3 nM; under setting [2], 198 nM; under setting [4], 41 nM.

With “UAGCAGCGAGGAUAUACAGACAGGUCCAAUACGUGUCUUGGACUUGAGGAUCACCCAAGUAGAAGGCGCCACAG [salish99_ex2_r4_602] (Eterna round: R97, puzzle: Exclusion 2)”, the “apparent KD of MS2 coat protein” value was 104 nM (input ligand: FMN 200 uM) and 62 nM (input ligand: none).

Consider “GUGUGCAGAGGAUAUACAGAGGAAAAUAAUAAAUAAUAUUGACAUGAGGAUCACCCAUGUAGAAGGCUGAGUGU [Excluse me!! 25 - Jieux - Exclusion 2] (puzzle: Exclusion 2)”, for which the “apparent KD of MS2 coat protein” value runs as follows: under setting [3], 38.3 nM; under setting [2], 37.4 nM; under setting [4], 39.7 nM.

For the sequence “GGCUAGUCAGGAUAUACGAACAUGUCAAAAGACGUGAAGGGACAUGAGGAUCACCCAUGUAGAAGGGACUAGCG [salish99_ex2_r3_002] (puzzle: Exclusion 2)”, the “apparent KD of MS2 coat protein” value under setting [2] was 25 nM.

“GUCAUGUUAGGAUAUCUGACAUGUGACUUCGGUCACUGUCCAGAGAAGGAACAUGAGGAUCACCCAUGUUGGAC [Ex4-3: 55] (puzzle: Exclusion 4)”: the “apparent KD of MS2 coat protein” value under setting [2] turned out to be 43.2 nM.

Take “GCUGCGCGAGGAUAUGCGGUUUGUGCUUUGGGCCCUGGCGUACAUGAGGAUCACCCAUGUAGAAGGCGUGUGGG [Apr-15 SS2-51] (puzzle: Exclusion 2)”: the “apparent KD of MS2 coat protein” value under setting [2] was 32.8 nM.

Turning to “GUACUAGAAUAUCAGUCGCACAUGAGGAUCACCCAUGUCAUGGGUAGAUCAAUAAAUAAAGAUACUGCUCGUCUUAU [Cac sensor turnoff var1 sub2] (Eterna round: R97, puzzle: Sensor, turn-off variant 1)”, the “apparent KD of MS2 coat protein” value was 496 nM (input ligand: FMN 200 uM) and 378 nM (input ligand: none).

As for “CCUAGUUGGUAAGGAUAUCCUACACUGUUCUGACCCGUGCAAGCUACAUGAGGAUCACCCAUGUGGGAGAAGGUGCGUCAACGC [Design 12] (Eterna round: R96, puzzle: Exclusion NG 2)”, the “apparent KD of MS2 coat protein” value (input ligand: FMN 200 uM) was 29 nM, the “apparent KD of MS2 coat protein” value under setting [1] came to 25.3 nM and the “apparent KD of MS2 coat protein” value (input ligand: none) was 29.2 nM.

Consider “ACAUGAGGAUCACCCAUGUGACCACGAUGGCUGAUGUAGAGCUAGGAUAUGAGUGAAUAUCUAUCUCAGAAGGAGCUUGACUGG [Deportation 49 - Jieux - Exclusion NG 3] (Eterna round: R96, puzzle: Exclusion NG 3)”, for which the “apparent KD of MS2 coat protein” value reads like this: (input ligand: FMN 200 uM) 25.7 nM; under setting [1], 16.4 nM; (input ligand: none) 26.2 nM.

For the sequence “AGCAGACGAGGAUAUGAUAAUUAAUACAUGAGGAUCACCCAUGUAAUACUGAUCCAUGGAUCAGAAGGCGUCUGCU [E5/4-A1] (Eterna round: R97, puzzle: Exclusion 5)”, the “apparent KD of MS2 coat protein” value is, setting by setting: (input ligand: FMN 200 uM) 27.1 nM; (input ligand: none) 17.6 nM.

For the sequence “CGAUGCUCGAAUCCACAUGAGGAUCACCCAUGUCGAGUUAGCGAGGAUAUCGGUGACACAUAGUAUGAGAAGGCGCGAACCUGA [Ex NG3 #24] (Eterna round: R96, puzzle: Exclusion NG 3)”, the “apparent KD of MS2 coat protein” value is 103 nM (input ligand: FMN 200 uM), 28 nM under setting [1] and 41.7 nM (input ligand: none).

For the sequence “UAUUACAAGCGAGAUCCUAACAUGAGGAUCACCCAUGUGCUCGUCUCAUUUUGGACUAUCACGAAAGUGAUAGUCCU [Level Boss var2-02] (puzzle: Sensor v3, turn-off variant 1)”, the “apparent KD of MS2 coat protein” value reads like this: under setting [3], 19.9 nM; under setting [2], 237 nM; under setting [4], 17.2 nM.

Regarding “AGUACUAACACGCAUGUGUUAGUACAAUAAGCUUGUGAAACAUGAGGAUCACCCAUGUCCUCAUAAGCUCGUCUUAU [salish99_TOv2_r3_068] (Eterna round: R96, puzzle: Sensor v3, turn-off variant 2)”, the “apparent KD of MS2 coat protein” value stood at 14.8 nM (input ligand: FMN 200 uM), 415 nM under setting [1] and 17.2 nM (input ligand: none).

Turning to “GGCCUUCCGCGAGCUUUUUACAUGAGGAUCACCCAUGUGGUUUUUAGUCUUAUGCCCGGGCCCGUGUGGGCCCGGGC [-33.7, -54.7, A 12%] (Eterna round: R97, puzzle: Sensor, turn-off variant 1)”, the “apparent KD of MS2 coat protein” value is, setting by setting: (input ligand: FMN 200 uM) 27.6 nM; (input ligand: none) 29.2 nM.

Turning to “UUUCCCUGUGUGAGGAUAUACUUGUUUGGGUUUUUGUAGAAGGCACAUGAGGAUCACCCAUGUAUUUUGUCGUG [JR_BME4_Sub020] (puzzle: Brourd's mod of Exclusion 4)”, the “apparent KD of MS2 coat protein” value under setting [2] is 40.9 nM.

For the sequence “UUUGUAUAUGAAGGAUAUACUUAACAUGAGGAUCACCCAUGUGGUGUUGUGAGUGAGUGAGUUUAGUAGAAGGUCAAUUCUUUU [JMF's solution 92] (Eterna round: R96, puzzle: Exclusion NG 2)”, the “apparent KD of MS2 coat protein” value reads like this: (input ligand: FMN 200 uM) 651 nM; under setting [1], 417 nM; (input ligand: none) 434 nM.

“AGUCAGACGGUAGGAUAUCCAUAUCGAGUGACCCUUUCAUAACAUGAGGAUCACCCAUGUCGGUGGGAGAAGGGCCGUACGGCG [JL ViennaUCT Atra mod 5] (Eterna round: R96, puzzle: Exclusion NG 2)”: the “apparent KD of MS2 coat protein” value by setting is: (input ligand: FMN 200 uM) 226 nM; under setting [1], 93.3 nM; (input ligand: none) 129 nM.

As for “UGUGUGUGAGGAUAUACAAUGCGCGCGCGAAAGUGUGUGUUACAUGAGGAUCACCCAUGUAGAAGGCGCGCGCG [-31, -27.8 kcal A 24%, 6,6bis] (Eterna round: R97, puzzle: Exclusion 2)”, the “apparent KD of MS2 coat protein” value (input ligand: FMN 200 uM) was 15.7 nM and the “apparent KD of MS2 coat protein” value (input ligand: none) was 17 nM.

As to “UCUCCACAUGAGGAUCACCCAUGUCAGGAUAUGCUGCGGCUACUAAAAGAGAAUUGCGGCAGAAGGGACACGCC [EX1 B.25] (Eterna round: R97, puzzle: Exclusion 1)”, the “apparent KD of MS2 coat protein” value turned out to be 68 nM (input ligand: FMN 200 uM) and 20.2 nM (input ligand: none).

Regarding “ACUAGGAGAUUAGGAUAUCUAUCUCACAUGAGGAUCACCCAUGUAUAAGCGUCCUAAAGGUGGAUGGAGAAGGGAUGUCCGAAG [Eternabot solution 13] (Eterna round: R96, puzzle: Exclusion NG 2)”, the “apparent KD of MS2 coat protein” value was 14.1 nM (input ligand: FMN 200 uM), 13.8 nM under setting [1] and 17.5 nM (input ligand: none).

With “CUUAGACAUGAGGAUCACCCAUGUGAGGAUAUGAUACAAUCAUACUAACAUAAUCACAUCAGAAGGCACAUAUG [Mat - Mod of JL D68] (puzzle: Exclusion 1)”, the “apparent KD of MS2 coat protein” value came to 34.6 nM under setting [3], 55.8 nM under setting [2] and 52.4 nM under setting [4].

In the case of “GAUAAACAUGAGGAUCACCCAUGUGAGGAUAUGCGUACGUUGUCCGUAGGCGACGUGCGCAGAAGGCGCAAGGU [Mat - Mod of JL D99] (puzzle: Exclusion 1)”, the “apparent KD of MS2 coat protein” value under setting [2] is 73 nM.
